# Test results taken from publication PMC4055408, “The Transcription Factor TFII-I Promotes DNA Translesion Synthesis and Genomic Stability” (PLoS Genetics, 2014).
# B1: Rev1 CTD (residues 1140–1251) (domain or fragment, human, UniProt Q9UBZ9 1140-1251, looked up)
# chain: GLSSLQSDPAGCVRPPAPNLAGAVEFNDVKTLLREWITTISDPMEEDILQVVKYCTDLIEEKDLEKLDLVIKYMKRLMQQSVESVWNMAFDFILDNVQVVLQQTYGSTLKVT
# notes: Rev1 C-terminal domain, residues 1140-1251; also called C-terminal domain (CTD) of Rev1; source: bacteria, GST fusion, purified (glutathione-Sepharose 4B, PreScission, anion exchange, size exclusion)
# B2: TFII-I^1–667 fragment (domain or fragment, human, UniProt P78347 1-667, looked up)
# chain: MAQVAMSTLPVEDEESSESRMVVTFLMSALESMCKELAKSKAEVACIAVYETDVFVVGTERGRAFVNTRKDFQKDFVKYCVEEEEKAAEMHKMKSTTQANRMSVDAVEIETLRKTVEDYFCFCYGKALGKSTVVPVPYEKMLRDQSAVVVQGLPEGVAFKHPENYDLATLKWILENKAGISFIIKRPFLEPKKHVGGRVMVTDADRSILSPGGSCGPIKVKTEPTEDSGISLEMAAVTVKEESEDPDYYQYNIQAGPSETDDVDEKQPLSKPLQGSHHSSEGNEGTEMEVPAEDSTQHVPSETSEDPEVEVTIEDDDYSPPSKRPKANELPQPPVPEPANAGKRKVREFNFEKWNARITDLRKQVEELFERKYAQAIKAKGPVTIPYPLFQSHVEDLYVEGLPEGIPFRRPSTYGIPRLERILLAKERIRFVIKKHELLNSTREDLQLDKPASGVKEEWYARITKLRKMVDQLFCKKFAEALGSTEAKAVPYQKFEAHPNDLYVEGLPENIPFRSPSWYGIPRLEKIIQVGNRIKFVIKRPELLTHSTTEVTQPRTNTPVKEDWNVRITKLRKQVEEIFNLKFAQALGLTEAVKVPYPVFESNPEFLYVEGLPEGIPFRSPTWFGIPRLERIVRGSNKIKFVVKKPELVISYLPPGMASKINTKALQ
# notes: source: bacteria, GST fusion, purified (glutathione-Sepharose 4B, PreScission, anion exchange, size exclusion)
# B3: TFII-I fragment (residues 350–667) containing R2-R4 (domain or fragment, human, UniProt P78347 350-667, looked up)
# chain: NFEKWNARITDLRKQVEELFERKYAQAIKAKGPVTIPYPLFQSHVEDLYVEGLPEGIPFRRPSTYGIPRLERILLAKERIRFVIKKHELLNSTREDLQLDKPASGVKEEWYARITKLRKMVDQLFCKKFAEALGSTEAKAVPYQKFEAHPNDLYVEGLPENIPFRSPSWYGIPRLEKIIQVGNRIKFVIKRPELLTHSTTEVTQPRTNTPVKEDWNVRITKLRKQVEEIFNLKFAQALGLTEAVKVPYPVFESNPEFLYVEGLPEGIPFRSPTWFGIPRLERIVRGSNKIKFVVKKPELVISYLPPGMASKINTKALQ
# notes: as for B2
# B4: Rev3L RBM (residues 1847–1898) (domain or fragment, human, UniProt O60673 1847-1898, looked up)
# chain: MLTPTPDSSPRSTSSPSQSKNGSFTPRTANILKPLMSPPSREEIMATLLDHD
# notes: The Rev3L chain of m12; also called Rev3L fragment; source: recombinant, purified together with His6-Rev7 R124A; prepared as previously described
# Tests used:
# [1] = biological target: T1, Rev7 R124A–Rev3L (residues 1847–1898) complex (human, UniProt Q9UI95 1-211; O60673 1847-1898, R124A); test: SEC; purified recombinant proteins mixed (1:1:1 molar ratios for Figure 1E) and fractionated on Superdex 200 10/300 GL; fractions on SDS-PAGE, Coomassie; conditions: both partners purified
# T1 construct: human Rev7 with R124A (disrupts Rev7 dimerization); also called Rev7–Rev3L; source: recombinant, purified; prepared as previously described; copies: 1 + 1
# T1 sequence (Q9UI95 whole entry R124A, the tested form may be a part, one chain of several): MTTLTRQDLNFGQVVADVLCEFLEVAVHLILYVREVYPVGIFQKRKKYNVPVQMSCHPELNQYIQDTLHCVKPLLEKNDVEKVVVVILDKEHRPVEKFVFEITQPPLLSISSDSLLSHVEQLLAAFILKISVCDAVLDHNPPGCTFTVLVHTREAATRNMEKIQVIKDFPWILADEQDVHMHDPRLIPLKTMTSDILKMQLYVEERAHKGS
# [2] = biological target: the molecule itself; test: SEC; single purified TFII-I fragments fractionated on Superdex 200; apparent molecular mass against standards; monomer or homodimer
# His6-Rev7 R124A = biological target: T2, His6-Rev7 R124A (human, UniProt Q9UI95 1-211, R124A); test: SEC; purified recombinant proteins mixed (1:1:1 molar ratios for Figure 1E) and fractionated on Superdex 200 10/300 GL; fractions on SDS-PAGE, Coomassie; conditions: both partners purified
# T2 construct: human Rev7 with R124A (disrupts Rev7 dimerization); The Rev7 chain of m12, written alone for the pairs that touch inside the reconstituted complexes; source: prepared as previously described
# T2 sequence (Q9UI95 whole entry R124A): as the sequence (Q9UI95 whole entry R124A, the tested form may be a part, one chain of several) above
Binder,stoichiometry N [1],also measured
B1,1,
B2,,stoichiometry N [2]: 2
B3,1,
B4,,binding result (His6-Rev7 R124A): binds
